From patent US20140363522A1
One block for each substance: values may come before it.

What was measured:
Experiment in all cases: cell-based or functional assay
[1] = target: interleukin (IL)-6 (human) (UniProt P05231)
[2] = target: interleukin (IL)-8 (human) (UniProt P10145)
[3] = target: monocyte chemoattractant protein-1 (human) (UniProt P13500)
[4] = target: tissue inhibitor of metalloproteinases-1 (human) (UniProt P01033)
tissue inhibitor of metalloproteinases-1 (human), sequence (P01033 24-207 limits assumed): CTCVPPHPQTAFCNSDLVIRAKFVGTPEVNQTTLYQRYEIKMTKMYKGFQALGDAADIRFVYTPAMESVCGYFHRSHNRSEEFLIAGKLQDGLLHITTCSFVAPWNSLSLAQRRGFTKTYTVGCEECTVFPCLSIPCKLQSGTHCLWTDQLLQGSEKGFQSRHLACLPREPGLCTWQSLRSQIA

interleukin (IL)-8 (human), sequence (P10145 28-99 limits assumed): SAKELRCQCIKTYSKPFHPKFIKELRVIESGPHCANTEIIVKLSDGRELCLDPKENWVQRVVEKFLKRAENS
interleukin (IL)-6 (human), sequence (P05231 30-212 limits assumed): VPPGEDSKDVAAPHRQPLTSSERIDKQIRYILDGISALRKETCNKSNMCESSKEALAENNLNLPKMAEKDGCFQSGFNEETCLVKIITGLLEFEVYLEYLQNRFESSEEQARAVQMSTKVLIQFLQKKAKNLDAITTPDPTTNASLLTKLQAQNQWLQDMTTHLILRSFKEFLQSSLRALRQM
monocyte chemoattractant protein-1 (human), sequence (P13500 24-99 limits assumed): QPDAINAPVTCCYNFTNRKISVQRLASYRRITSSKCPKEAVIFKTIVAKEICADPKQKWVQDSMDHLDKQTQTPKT

decrease in in vitro ovarian cancer cell homing toward adipocytes (Matrigel plug, fluorescence) [1]: > 50%
Substance: IL-6 inhibitory antibody (R&D Systems AB206NA)

decrease in in vitro ovarian cancer cell homing toward adipocytes (Matrigel plug, fluorescence) [2]: > 50%
Substance: IL-8 inhibitory antibody (R&D Systems AB208NA)

decrease in in vitro ovarian cancer cell homing toward adipocytes (Matrigel plug, fluorescence) [3]: > 50%
Substance: MCP-1 inhibitory antibody (R&D Systems AB279NA)

decrease in in vitro ovarian cancer cell homing toward adipocytes (Matrigel plug, fluorescence) [4]: > 50%
Substance: TIMP-1-specific inhibitory antibody (R&D Systems AF970)
